The values that follow come from the supplement of paper PMC9170038.

This data set deals with MS2 coat protein. The data set is described as follows: apparent KD of MS2 coat protein; designed switch direction (-1 OFF switch, 1 ON switch): -1; higher = weaker reporter binding. In outline: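 Normalised cluster fluorescence was curve-fitted, and each design's median over clusters is its apparent KD. Before this, SNAP-549-labelled MS2 coat protein was titrated from 0.7 or 1.5 nM, doubling to 3 µM, over RNA switches transcribed on Illumina chips by stalled E. coli RNA polymerase. Titrations had no input, 200 uM small-molecule ligand, or an oligonucleotide input, and steps lasted 0.8–1.5 h (lowest) to 10–20 min (highest).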

Setting [1] is: Eterna round: R95, input ligand: FMN 200 uM.
Where [2] appears, read: Eterna round: R95, input ligand: microRNA oligo, concentration not stated.
The mark [3] stands for this setting: Eterna round: R95, input ligand: none.
Setting [4] is: input ligand: microRNA oligo, concentration not stated.

“UGGCUACAUGAGGAUCACCCAUGUCAGGAUAUGCCGUUGAAUUGACAUCGACGUACGGGUAGAAGGGACUGCGU [1st #10] (Eterna round: R97, puzzle: Exclusion 1)”: the “apparent KD of MS2 coat protein” value came out at 50 nM (input ligand: FMN 200 uM) and 41.6 nM (input ligand: none).
In the case of “UAUUAGCAAGCAUGAUCCCACAUGAGGAUCACCCAUGUGCUCGUCUUAUAAGGUACUGUGACGAAAGUCACGGUACC [Sensor 3, v1 - 97] (puzzle: Sensor v3, turn-off variant 1)”, the “apparent KD of MS2 coat protein” value turned out to be 195 nM under setting [1], 89.4 nM under setting [2] and 218 nM under setting [3].
Take “UUUCGGCAUGUAGGAUAUGGAUCCGAUUAGGAUUUAGAAGGACAUGAGGAUCACCCAUGUGCAUUUAAUUGGUCAUUACCGUUU [EXclNG1-LROPPY08] (Eterna round: R96, puzzle: Exclusion NG 1)”: under setting [4], the “apparent KD of MS2 coat protein” value was found to be 41.9 nM.
On to “GCACGACAUGAGGAUCACCCAUGUGAGGAUAUUUAGACGCCUGUGAAUGCAGCCAUUUAGAGAAGGCAUUGGGU [Eternabot (L1) Solution 99] (Eterna round: R97, puzzle: Exclusion 1)”, for which the “apparent KD of MS2 coat protein” value turned out to be 129 nM (input ligand: FMN 200 uM) and 43.9 nM (input ligand: none).
Take “CCGGUAGUAGUCAGGAUAUUCGAUUUUCACCAAGCGAAGAAGGGACAUGAGGAUCACCCAUGUUAGGUGAACGG [Eternabot (L2) Solution 68] (Eterna round: R97, puzzle: Brourd's mod of Exclusion 4)”: the “apparent KD of MS2 coat protein” value (input ligand: FMN 200 uM) was found to be 196 nM and the “apparent KD of MS2 coat protein” value (input ligand: none) came to 37.6 nM.
In the case of “GAAAAUGUGGAGGAUAUCGACUUCGAAAGAAGUCGAGAAGGCCACACAUGAGGAUCACCCAUGUGUGCCUUAAA [Omei Ex6 H3] (Eterna round: R97, puzzle: Exclusion 6)”, the “apparent KD of MS2 coat protein” value (input ligand: FMN 200 uM) was found to be 23.9 nM and the “apparent KD of MS2 coat protein” value (input ligand: none) worked out at 12 nM.
Turning to “UCACGGGACUGAGGAUAUACAUGAAUUAUUUUUGUAGAAGGCAGAAUGUUAGAUUAUUCACUAUACAUGAGGAUCACCCAUGUU [JR_ExcNG1_Sub022] (Eterna round: R96, puzzle: Exclusion NG 1)”, the “apparent KD of MS2 coat protein” value under setting [4] worked out at 18.8 nM.
Turning to “UUAAAUCAUGUAGGAUAUGCGUGGCGAAGCUAUGCAGAAGGACAUGAGGAUCACCCAUGUUCUAGCGUCUGCGUACAGAUGCGG [JL JSci mod] (Eterna round: R96, puzzle: Exclusion NG 1)”, the “apparent KD of MS2 coat protein” value by setting is: (input ligand: FMN 200 uM) 334 nM; under setting [4], 22 nM; (input ligand: none) 29.8 nM.
Turning to “CUGGUCCGAGGAUAUAUUAAGUGAUACAUGAGGAUCACCCAUGUUAUUUAAUGGAUGUUAAUAGAAGGCGGACUAG [JL-ex5-3.19] (puzzle: Exclusion 5)”, the “apparent KD of MS2 coat protein” value reads like this: under setting [1], 33.9 nM; under setting [2], 43.9 nM; under setting [3], 34.8 nM.
With “UAUAUAUAGUAAGGAUAUGUAUAUAUUGUAUAAACAGAAGGUACUGACAUGAGGAUCACCCAUGUUUUAGUGUGGGCAUGUAGA [JMF's solution 61] (Eterna round: R96, puzzle: Exclusion NG 1)”, the “apparent KD of MS2 coat protein” value under setting [4] is 57.5 nM.
Take “AUAUGUGCGAGAGGAUAUCGUGUACAAAGUACACGAGAAGGCUUCACAUGAGGAUCACCCAUGUACCGAGGUGAAACACCUUGA [Omei Exc(NG)1 Bv5] (Eterna round: R96, puzzle: Exclusion NG 1)”: the “apparent KD of MS2 coat protein” value reads like this: (input ligand: FMN 200 uM) 357 nM; under setting [4], 156 nM; (input ligand: none) 234 nM.
On to “ACCAAUGCAGGAUAUACAUGAGGAUCACCCAUGUAUAACCUACAUAGAUGAUCAUCAUGUAGAAGGGCAAUGGA [EX3 229: Super Stable 29] (Eterna round: R96, puzzle: Exclusion 3)”, for which the “apparent KD of MS2 coat protein” value by setting is: (input ligand: FMN 200 uM) 12.2 nM; under setting [4], 11.1 nM; (input ligand: none) 14.6 nM.
For “AUAAAACAUGAGGAUCACCCAUGUGAGGAUAUACGACUCCAACCUAACAGCUUGGACCGUAGAAGGCACAAGGG [Exclusion 1 (MOD3.2 Esqu)] (Eterna round: R97, puzzle: Exclusion 1)”, the “apparent KD of MS2 coat protein” value is, setting by setting: (input ligand: FMN 200 uM) 137 nM; (input ligand: none) 159 nM.
Take “AUGUAAGCGGAGGAUAUCUGGUGGAUACAGAUGGGAGAAGGUCGCACAUGAGGAUCACCCAUGUCGCAGAGAUG [Eternabot (L2) Solution 83] (Eterna round: R97, puzzle: Exclusion 6)”: the “apparent KD of MS2 coat protein” value is 44.1 nM (input ligand: FMN 200 uM) and 55.3 nM (input ligand: none).
As for “AUUGGGCAAGCAUGAUCCCACAUGAGGAUCACCCAUGUGUUCGUCUUAUAGGCUGCUGAGGCUUUUGCCUCGGUGGC [LRO Sensor-off var1-02 loose mod of D91 from Mat747] (Eterna round: R97, puzzle: Sensor, turn-off variant 1)”, the “apparent KD of MS2 coat protein” value reads like this: (input ligand: FMN 200 uM) 706 nM; (input ligand: none) 875 nM.
Turning to “UAAAACCUAGGAUAUACAUGAGGAUCACCCAUGUUCGAAGGAGCCCAAGUGACUUCUAGUAGAAGGAGGGCGAA [Aratisedso] (puzzle: Exclusion 3)”, the “apparent KD of MS2 coat protein” value under setting [2] was determined as 18.8 nM.
In the case of “AAGACACAUGAGGAUCACCCAUGUGAGGAUAUUUGAUGCUGAGCGUAAGCUUAGUAUCAGAGAAGGUACAUAGG [Salishxclusion 10 - Jieux - Exclusion 1] (Eterna round: R97, puzzle: Exclusion 1)”, the “apparent KD of MS2 coat protein” value was 105 nM (input ligand: FMN 200 uM) and 58.9 nM (input ligand: none).
In the case of “CCCGUGUGAGGAUAUCCCUCCACAGUACGAAUCGACCCGUGGGAGAAGGCACAUGAGGAUCACCCAUGUGAACG [Eternabot (Original) Solution 30] (Eterna round: R97, puzzle: Exclusion 4)”, the “apparent KD of MS2 coat protein” value (input ligand: FMN 200 uM) was 42.5 nM and the “apparent KD of MS2 coat protein” value (input ligand: none) stood at 32.8 nM.
On to “CUGCUCCGUGUAGGAUAUCCCGGCAACCAACCGGGAGAAGGACAUGAGGAUCACCCAUGUAUGUUAUUAUCACGUGAAGCGUCC [Design 28] (Eterna round: R96, puzzle: Exclusion NG 1)”, for which the “apparent KD of MS2 coat protein” value was 29 nM (input ligand: FMN 200 uM), 12.5 nM under setting [4] and 19.9 nM (input ligand: none).
For the sequence “AUAAACGCAGGAUAUACAUGAGGAUCACCCAUGUAAAUUUUAAAAUAAAUAAAUAGAUGUAGAAGGGCGAAAUA [Lollin - Gamma 1] (puzzle: Exclusion 3)”, the “apparent KD of MS2 coat protein” value reads like this: under setting [1], 37 nM; under setting [2], 28.2 nM; under setting [3], 33.5 nM.
On to “UCCUCACAUGAGGAUCACCCAUGUUAGGAUAUCUUAGAGCGCGAAAGACAGUUCUUUAAGAGAAGGAACUGGGC [Exclusion 1 (MOD1 of Edarti)] (Eterna round: R97, puzzle: Exclusion 1)”, for which the “apparent KD of MS2 coat protein” value (input ligand: FMN 200 uM) stood at 54 nM and the “apparent KD of MS2 coat protein” value (input ligand: none) was 22.4 nM.
As for “GGUUGGCGAGGAUAUACAUGAGGAUCACCCAUGUGAGAGAGAAAAGUGAGGAAGAAAAGUAGAAGGCGCUGACG [salish99_ex3_r3_003] (puzzle: Exclusion 3)”, the “apparent KD of MS2 coat protein” value reads like this: under setting [1], 97.3 nM; under setting [2], 48 nM; under setting [3], 36.1 nM.
As to “GAUUAUGCGAGCUUUAGGGACAUGAGGAUCACCCAUGUUCGUCUUAUUGGUCUAGAUGCACUAACAUACCUAAAUCU [JMF 26] (puzzle: Sensor v3, turn-off variant 1)”, the “apparent KD of MS2 coat protein” value by setting is: under setting [1], 18 nM; under setting [2], 24.4 nM; under setting [3], 18.2 nM.
For the sequence “AGUACAAACACGAAAGUGUUUGUACAAUAAGCUUGUGGAACAUGAGGAUCACCCAUGUCCUCAUAAGCUCGUCUUAU [Mat - Sensor v3 - Turn-off var 2 - D29] (puzzle: Sensor v3, turn-off variant 2)”, the “apparent KD of MS2 coat protein” value under setting [1] is 15.7 nM, the “apparent KD of MS2 coat protein” value under setting [2] turned out to be 87.1 nM and the “apparent KD of MS2 coat protein” value under setting [3] was found to be 14.5 nM.
Take “UAAUAAAGUGUGAGGAUAUGCUGGUCGAUAGAUCAGCAGAAGGCACAUGAGGAUCACCCAUGUAAUAUAUUUUA [Mat - Exclusion 4 - JL Mod - D46] (Eterna round: R96, puzzle: Brourd's mod of Exclusion 4)”: the “apparent KD of MS2 coat protein” value runs as follows: (input ligand: FMN 200 uM) 238 nM; under setting [4], 40.6 nM; (input ligand: none) 56.1 nM.
Regarding “ACCUUACUGGUCAGGAUAUACAGUCUUUGGUGUGUGUAGAAGGGACAUGAGGAUCACCCAUGUAGGUUGCUUUA [alecazam62] (Eterna round: R97, puzzle: Brourd's mod of Exclusion 4)”, the “apparent KD of MS2 coat protein” value turned out to be 220 nM (input ligand: FMN 200 uM) and 141 nM (input ligand: none).
As to “GUCGUACAUGAGGAUCACCCAUGUGAGGAUAUAGGUAGCAACCAGAAAUGGUUGCUACCUAGAAGGCGCAUGAU [Malcxlusion 10 - Jieux - Exclusion 1] (Eterna round: R97, puzzle: Exclusion 1)”, the “apparent KD of MS2 coat protein” value reads like this: (input ligand: FMN 200 uM) 529 nM; (input ligand: none) 104 nM.
Take “AUUAAACAUGUAGGAUAUGCGUAGCAAAGCUAUGCAGAAGGACAUGAGGAUCACCCAUGUAAAAGCGUCUGAGUACAGAUGCAA [Mat - Exclusion NG 1 - Mod of JL - D88] (Eterna round: R96, puzzle: Exclusion NG 1)”: the “apparent KD of MS2 coat protein” value by setting is: (input ligand: FMN 200 uM) 936 nM; under setting [4], 40.5 nM; (input ligand: none) 47.6 nM.
With “CCUCCCGCCGUCAGGAUAUGCCGUACCGCUGCGCUACAGAAGGCACUUGAGGAUCACCCAAGUACCCGUGAGGC [salish99_bmod_ex4_r4_010] (Eterna round: R97, puzzle: Brourd's mod of Exclusion 4)”, the “apparent KD of MS2 coat protein” value (input ligand: FMN 200 uM) came to 16.5 nM and the “apparent KD of MS2 coat protein” value (input ligand: none) came to 15.7 nM.
